Laboratory results taken from patent US20210205413A1 (Nektar Therapeutics, priority 2018, published 2021).

Key:
[1] = Phase I ascending multiple-dose study in patients with SLE: pharmacokinetics; type: in vivo, human; details: Multi-Dose Study
Procedure: The effects on SLE disease activity are also evaluated. Twelve SLE patients with minimal to moderate disease activity are randomized to each of four dose cohorts, nine of whom received multiple 1.0 mg/mL aqueous solution sub-cutaneous doses of RUR-IL-2-20 kD, while three received placebo. […] In Cohort 1, a starting dose of 3.0 μg/kg is administered three times at two-week intervals (Days 1, 15, and 29). This starting dose is based on the favorable safety and PD profile of single sub-cutaneous doses of RUR20kD-IL-2 previously determined in the study described above. The subsequent dose levels in Cohorts 2, 3, and 4, respectively, were up to two-fold that of the previous dose cohort. Patients in Cohorts 1-3 received three doses of study drug at two-week intervals over a total of four weeks. Doses to be evaluated over the course of the study range from 3.0 μg/kg to 24 μg/kg. […] After receiving the final dose of RUR20kD-IL-2 or placebo, patients are followed for an additional fifty days to evaluate safety, PK, PD, and preliminary efficacy. Eight of twelve subjects in each cohort are evaluated two weeks after the third dose of the final patient by the Safety Review Committee for possible safety issues. In addition, all patients in Cohort 4 are evaluated by the Safety Review Committee twice: (1) two weeks after the first eight subjects receive their third dose and (2) two weeks after all subjects receive all doses of study drug. Immunologic changes, including Tregs, CD4^+-T cells, CD8^+-T cells, and NK cell responses, cytokine levels, and available PK data, in addition to safety findings, are used to determine dose levels. The primary objective of the study is to evaluate the safety and tolerability of RUR20kD-IL-2 administered as multiple ascending subcutaneous doses to patients with SLE. […] Results depicting preliminary PK data from the ascending multi-dose study are compared with data from the single subcutaneous study in the below Table 15: […]

NK cells = experiment: Single-dose PK/PD study in mice: NK cells; type: in vivo, C57BL/6 mice; details: single SC 0.3 mg/kg (highest dose), relative to vehicle control
Text: Following administration, blood and spleen samples are collected at days 1-7 and day 10 post administration. More particularly, at each time point, blood and spleen samples are collected; samples are pooled and assessed for pharmacodynamic analysis of drug action on lymphocyte cell populations by flow cytometry (see e.g. Example 5), expressed as a fold change relative to vehicle control. In addition to changes in cell numbers, functional markers and markers of activity are quantified. Finally, plasma drug concentration is also assessed.

[2] = system: Balb/C mice (OVA food allergy model); experiment: Food allergy model (OVA sensitization and oral challenge); type: in vivo
Procedure: To develop the DTH model, Balb/c mice are sensitized with a subcutaneous administration of a model antigen keyhole limpet hemocyanin (KLH) emulsified in complete and incomplete Freund's adjuvant. […] Inflamed ears are subjected to immunohistochemistry (IHC) to quantify percent of FoxP3+ Treg cells post KLH challenge. The specificity of response is assessed after an additional 3-4 weeks with no treatment by either KLH rechallenge or conducting sensitization and challenge with an unrelated antigen ovalbumin (OVA). […] Post ten days of 2nd sensitization, mice are challenged with OVA eight times orally, every alternative day. […] Severity of allergic response is assessed by clinical scoring within 30-45 min of post 8th challenge. Further, serum mast cell protease 1 (MCPT 1) and OVA specific IgE titers are quantified. The percent Treg is determined by flow cytometry in peripheral blood and in spleen.

Tregs = experiment: Single-dose study in cynomologous monkey: Tregs in blood by flow cytometry; type: in vivo
Procedure: A series of blood samples are taken from each animal before treatment (day −6 and −1) and at multiple intervals following treatment for assessment by flow cytometry of Treg cell numbers and activation state.
For immunophenotyping analysis, blood samples (approximately 1.0 mL) are collected from each monkey at the following time points: Pre-treatment (Day −6 and −1), Day 2, Day 3, Day 4, Day 5, Day 6, Day 7, Day 10, Day 14, and Day 21 post treatment. Venipuncture samples are collected into tubes containing the anticoagulant, K2EDTA. Tubes are placed on wet ice pending transfer. The whole blood samples are analyzed by flow cytometry using the following panels, and the samples are analyzed for the following: • T cell panel: CD45/CD3/CD4/CD8/ICOS • TB/NK panel: CD45/CD3/CD16/CD20 • pSTAT5 panel: CD3/CD4/CD8/CD25/CD127/pSTAT5 • Treg panel 1: CD3/CD4/CD8/CD25/FoxP3/Ki67 • Treg panel 2: CD3/CD4/CD8/CD25/FoxP3/Helios Computerized systems can be used for the conduct of the study, for example flow cytometry data acquisition can use BD FACSCanto II/FACSDiva LEGENDPlex Data Analysis Software, and flow cytometry data analysis can use De Novo FCS Express software.
Values from male and female are averaged, and the magnitude of change is shown relative to d-1 values, marked by the dotted line.

[3] = Single dose toxicokinetics in rats (SC, LS-2016-004); type: in vivo, Rat; details: mean of three rats per time point

Substance: (1,3-bis(methoxypoly(ethylene glycol)10kDcarbamoyl)-2-propanoxy)-4-butanamide)interleukin-2) [RUR20kD-IL-2]
- AUC0-14 d ([1]; 3.0 μg/kg, Median (n = 9)): 185 ng·days/mL
- Cmax ([1]; 3.0 μg/kg, Median (n = 9)): 18 ng/mL
- tmax ([1]; 3.0 μg/kg, Median (n = 9)): 140 h
- AUC0-14 d ([1]; 3.0 μg/kg, max): 291 ng·days/mL
- Cmax ([1]; 3.0 μg/kg, max): 26 ng/mL
- tmax ([1]; 3.0 μg/kg, max): 336 h
- AUC0-14 d ([1]; 3.0 μg/kg, min): 113 ng·days/mL
- Cmax ([1]; 3.0 μg/kg, min): 15 ng/mL
- tmax ([1]; 3.0 μg/kg, min): 48 h
- Cmax ([1]; 6.0 μg/kg, Median (n = 7)): 14 ng/mL
- tmax ([1]; 6.0 μg/kg, Median (n = 7)): 140 h
- AUC0-14 d ([1]; 6.0 μg/kg, max): 206 ng·days/mL
- Cmax ([1]; 6.0 μg/kg, max): 22 ng/mL
- tmax ([1]; 6.0 μg/kg, max): 336 h
- AUC0-14 d ([1]; 6.0 μg/kg, min): 43 ng·days/mL
- Cmax ([1]; 6.0 μg/kg, min): 5 ng/mL
- tmax ([1]; 6.0 μg/kg, min): 96 h
- increase in NK cells (NK cells): less than 2 fold
- Tregs (flow cytometry, peripheral blood and spleen) ([2]; SC 0.1 mg/kg q3d×3): significant increase in Tregs
- levels of MCPT1 and anti-OVA specific IgE titers ([2]; SC 0.1 mg/kg q3d×3): significant decrease in levels of MCPT1 and anti-OVA specific IgE titers
- anaphylaxis symptoms (clinical scores) ([2]; SC 0.1 mg/kg q3d×3, repeated oral OVA): efficacious in decreasing the high degree of anaphylaxis symptoms
- day FoxP3 MFI nearly returns to pre-dose levels (Tregs; single SC 25 μg/kg): 14 to 21 days
- day by which CD25 MFI returns to near pre-dose levels (Tregs; single SC 25 μg/kg): ≤ 21 days
- day of maximum CD25 MFI (Tregs; single SC 25 μg/kg): 6 days
- days by which Treg numbers return to near d-1 levels (Tregs; single SC 25 μg/kg): 14 to 21 days
- time of maximum FoxP3 MFI (Tregs; single SC 25 μg/kg): 6 days
- time of maximum Treg cell numbers (Tregs; single SC 25 μg/kg): seven days following administration
- duration of sustained Treg mobilization and activity (Tregs; single administration): over 14 days
- AUCinf ([3]; single SC 0.01 mg/kg): 5230 ng·h/mL
- AUClast ([3]; single SC 0.01 mg/kg): 5210 ng·h/mL
- Cmax ([3]; single SC 0.01 mg/kg): 60 ng/mL
- Half-life ([3]; single SC 0.01 mg/kg): 33.8 h
- MRTinf ([3]; single SC 0.01 mg/kg): 63.1 h
- tmax ([3]; single SC 0.01 mg/kg): 24 h
- AUCinf ([3]; single SC 0.1 mg/kg): 73000 ng·h/mL
- AUClast ([3]; single SC 0.1 mg/kg): 71100 ng·h/mL
- Cmax ([3]; single SC 0.1 mg/kg): 640 ng/mL
- Half-life ([3]; single SC 0.1 mg/kg): 58.6 h
- MRTinf ([3]; single SC 0.1 mg/kg): 97.9 h
- tmax ([3]; single SC 0.1 mg/kg): 24 h
- AUCinf ([3]; single SC 1.5 mg/kg): 678000 ng·h/mL
- AUClast ([3]; single SC 1.5 mg/kg): 672000 ng·h/mL
- Cmax ([3]; single SC 1.5 mg/kg): 9300 ng/mL
- Half-life ([3]; single SC 1.5 mg/kg): 47.3 h
- MRTinf ([3]; single SC 1.5 mg/kg): 73.7 h
- tmax ([3]; single SC 1.5 mg/kg): 48 h
